Measured values taken from patent US10172917B2, “Targeted oesophageal administration of ZN-α2-glycoproteins (ZAG), methods and formulations thereof” (ASTON UNIVERSITY, priority 2012, dated 2019).

What was measured:
ob/ob mice = experiment: Serum metabolite and insulin levels in ob/ob mice after ZAG administration; format: in vivo, mouse; conditions: ob/ob mice after ZAG administration
Excerpt: FCS (foetal calf serum) was from Biosera (Sussex, UK), while DMEM (Dulbecco's modified Eagles Medium) was from PAA (Somerset, UK) and Freestyle medium was purchased from Invitrogen (Paisley, UK). Hybond A nitrocellulose membranes and peroxidise—conjugated rabbit anti-mouse antibody were from GE Healthcare (Bucks, UK), while enhanced chemiluminescene (ECL) development kits were purchased from Thermo Scientific (Northumberland, UK). Mouse monoclonal antibodies to full-length human and mouse ZAG were from Santa Cruz Biotechnology (Santa Cruz, Calif. A mouse insulin ELISA kit was purchased from DRG (Marburg, Germany) and glucose measurements in both urine and plasma were made using a Boots (Nottingham, UK) glucose kit. L-[U-^14C] tyrosine (sp.act 16.7 GBqmmol^−1) was purchased from Perkin Elmer Ltd, (Cambridge, UK), while 2-[1-^14C] deoxy-D-glucose (sp.act 1.85 GBqmmol^−1) was from American Radiolabeled Chemicals (Cardiff, UK).
Obese (ob/ob) mice (average weight 65 g) were bred in a colony, and were kept in an air conditioned room at 22+2° C. with ad libitum feeding of a rat and mouse breeding diet (Special Diet Services, Witham, UK) and tap water. […] Animals were grouped (n=5) to receive either ZAG/PBS (50 μg day^−1), or PBS in their drinking water, the experiment was repeated three times after a power analysis was performed. […] The ZAG was replaced every 48 h. One group of mice receiving ZAG were also administered propanolol (40 mgkg^−1, p.o.) daily. The dose of ZAG was chosen to be the same as that previously administered i.v. (1), so that a direct comparison could be made, between the two routes. Body weight, food and water intake, urinary glucose excretion, and body temperature, determined by the use of a rectal thermometer (RS Components, Northants, UK), were measured daily. A glucose tolerance test was performed on day 3. Animals were fasted for 12 h, followed by oral administration of glucose (1 gkg^−1 in a volume of 100 μl by gavage). Blood samples were removed from the tail vein at 15, 30, 60 and 120 min and used for the measurement of glucose. Urinary glucose was measured by collecting 0.5 ml urine and testing glucose concentration using a Boots glucose monitor. After 8 days of treatment the animals were terminated by cervical dislocation, tissues were removed and rapidly frozen in liquid nitrogen, and maintained at −80° C. Future work would be to repeat this work in diet-induced animals as alternative to a model with gene alteration, although previous studies have shown the ob/ob mouse to be a good indicator of potential human treatments. Animal studies were conducted under Home Office Licence according to the UKCCCR Guidelines for the care and use of laboratory animals.

human β2-AR = target: T1, human β2-AR (Homo sapiens, UniProt P07550); experiment: Cyclic AMP production in CHO cells transfected with human β2-AR; format: cell-based; conditions: 30 min incubation
T1 construct: expressed in transfected cells; host or cells: CHOK1 (CHO-K1) cells
Procedure: FIG. 3C is a graphical representation of the effect of a tryptic digest of ZAG in comparison with intact ZAG on cyclic AMP production by CHO cells transfected with human β1-AR (▪), β2-AR(□) and β3-AR) ( ? ) after 30 min incubation. ZAG (1 mg) was incubated with trypsin (200 μg) in 1 ml 10 mM Tris.HCl, pH8 for 4 h at 37° C. and proteolysis was terminated by addition of the trypsin inhibitor (200 μg). High molecular weight material was removed by a Sephadex G25 column followed by dialysis using an Amicon filtration cell containing a 10 kDa cut-off membrane filter.
CHOK1 cells transfected with human β1-, β2- and β3-AR were maintained in DMEM supplemented with 2 mM glutamine, hygromycin B (50 μgml^−1), G418 ([…]) and 10% FCS, under an atmosphere of 10% CO2 in air. For cyclic AMP production cells were grown in 24-well plates in 1 ml nutrient medium, and ZAG, after tryptic digestion as described in the legend to FIG. 3C, was incubated for 30 min. The medium was then removed and 0.5 ml of 20 mM HEPES, pH7.5, 5 mM EDTA and 0.1 mM isobutylmethylxanthine was added, followed by heating on a water bath for 5 min, and cooling on ice for 10 min. The concentration of cyclic AMP was determined using a Parameter cyclic AMP assay kit (New England Biolabs, Hitchin, Herts, UK).

ZAG mRNA = experiment: ZAG gene expression in mouse tissues by RT-PCR; format: in vivo; conditions: mice treated with ZAG orally; compared to stomach, small intestine or colon
Procedure: Total RNA was extracted from tissues (50-120 mg) and adipocytes with Trizol. RNA samples used for real-time PCR were treated with a DNA-free kit (Ambion) to remove any genomic DNA. The RNA concentration was determined from the absorbance at 260 nm. 1 μg of total RNA of each sample was reverse transcribed to cDNA in a final volume of 20 μl by using a Reverse-iT first strand kit (ABgene). 1 μl of each cDNA sample was then amplified in a PCR mixture containing 0.02 mM of each primer and 1.1⋅Reddy Mix PCR Master Mix (ABgene) in a final volume of 25 μl. Human b-actin was used as a house keeping gene. The PCR products were sequenced commercially to confirm their identity (MWG Biotech). (7)
Relative ZAG mRNA levels were quantified using real-time PCR with an ABI Prism 7700 Sequence Detector (Applied Biosystems). Mouse β-actin mRNA levels were similarly measured and served as the reference gene. Primers and Taqman probes were designed using PrimerExpress software (Applied Biosystems).

rats = rats treated with ZAG; cited from earlier work

B1: zinc-α2-glycoprotein (protein, listed as Homo sapiens)
chain: QENQDGRYSLTYIYTGLSKHVEDVPAFQALGSLNDLQFFRYNSKDRKSQPMGLWRQVEGMEDWKEDSQLQKAREDMETLKDIVEYYNDSNGSHVLQGRFGCEIENNRSSGAFWKYYYDGKDYIEFNKEIPAWVPFDPAAQITKQKWEAEPVYVQRAKAYLEEECPATLRKYLKYSKNILDRQDPPSVVVTSHQAPGEKKKLKCLAYDFYPGKIDVHWTRAGQVQEPELRGDVLHNGNGTYQSWVVVAVPPQDTAPYSCHVQHSSLAQPLVVPWEAS
notes: Recombinant human ZAG, a 41 kDa protein, produced by HEK293F cells transfected with pcDNA3.1 containing human ZAG
serum glucose level (ob/ob mice): decrease
serum glycerol level (ob/ob mice): elevation
serum insulin level (ob/ob mice): decrease
serum non-esterified fatty acids (ob/ob mice): decrease
serum triglycerides (ob/ob mice): decrease
cyclic AMP production (human β2-AR): stimulated
ZAG mRNA in oesophageal tissue (ZAG mRNA): dramatically increased
rise in body temperature (rats): 0.4 °C
